Molecular target: TRC35 (residues 23 to 305) (human, UniProt Q7L5D6 23-305)
Experiment: crystal structure

Sequence of TRC35 (residues 23 to 305) (Q7L5D6 23-305): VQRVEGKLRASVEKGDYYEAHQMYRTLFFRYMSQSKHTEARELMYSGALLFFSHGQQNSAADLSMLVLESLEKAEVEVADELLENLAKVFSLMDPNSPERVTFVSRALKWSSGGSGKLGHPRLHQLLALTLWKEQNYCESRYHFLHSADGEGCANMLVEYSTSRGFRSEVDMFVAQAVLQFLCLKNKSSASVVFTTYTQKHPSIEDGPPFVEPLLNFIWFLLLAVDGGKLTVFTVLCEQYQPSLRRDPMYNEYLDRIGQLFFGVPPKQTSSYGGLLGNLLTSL

- binding result: binds
B1: Bag6 minimal TRC35-binding domain containing the NLS (residues 1000-1054) (domain or fragment)
chain: ETEPWAAAVPPEWVPIIQQDIQSQRKVKPQPPLSDAYLSGMPAKRRKTMQGEGPQ

Source: article doi:10.1101/154351 (bioRxiv, 2017)
